The values that follow come from US20070275898.

The data set deals with β subunit of DNA polymerase III of Escherichia coli (UniProt P0A988).
Chain of β subunit of DNA polymerase III of Escherichia coli (P0A988 whole entry): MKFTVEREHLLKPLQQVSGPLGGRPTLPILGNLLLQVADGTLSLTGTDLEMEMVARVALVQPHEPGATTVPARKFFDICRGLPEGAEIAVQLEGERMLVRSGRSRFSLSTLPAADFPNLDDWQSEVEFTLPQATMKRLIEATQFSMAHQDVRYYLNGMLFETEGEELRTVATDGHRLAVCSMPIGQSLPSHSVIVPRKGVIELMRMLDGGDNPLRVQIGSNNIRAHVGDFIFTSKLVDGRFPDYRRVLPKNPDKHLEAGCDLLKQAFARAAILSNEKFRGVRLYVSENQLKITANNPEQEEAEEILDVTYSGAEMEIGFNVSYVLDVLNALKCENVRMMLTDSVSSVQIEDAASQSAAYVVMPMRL

“Pol IVD5 mutant of Pol IV lacking the 5 C-terminal amino-acids”: the “growth rate (OD 600 nm) of E. coli on IPTG-induced expression” value is reported as “a clear growth inhibition was observed for the culture expressing the wild type Pol IV protein compared to the one expressing the mutant protein”.
